Experiments:
[1] = target: T1, human CD123-Fc-His fusion protein (internal source) (human, UniProt P26951 19-305); experiment: SPR, Biacore 8K; CD123-Fc-His captured by anti-His, antibody as analyte, 1:1 Langmuir fit
T1 construct: not shown: Fc and His tag
T1 sequence (looked up): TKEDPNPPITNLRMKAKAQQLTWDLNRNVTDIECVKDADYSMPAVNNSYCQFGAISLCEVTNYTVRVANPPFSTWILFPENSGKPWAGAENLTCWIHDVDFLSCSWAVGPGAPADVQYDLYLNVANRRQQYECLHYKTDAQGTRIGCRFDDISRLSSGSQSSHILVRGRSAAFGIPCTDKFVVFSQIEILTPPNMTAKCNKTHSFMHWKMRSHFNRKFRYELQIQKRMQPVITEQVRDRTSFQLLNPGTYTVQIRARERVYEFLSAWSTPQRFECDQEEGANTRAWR
Method: Binding of antigens to the antibody constructs was measured using surface plasmon resonance (SPR) with a BIAcore 8K instrument (GE Healthcare) with HBS-EP+ buffer (GE Healthcare). For binding kinetics and affinity determination human CD3εδ-Fc-His and human CD123-Fc-His fusion proteins (both from internal source) were used as antigens. The anti-His capture antibody (His capture kit, GE Life Sciences) was immobilized via primary amine groups (11000 RU) on a research grade CM5 chip (GE Life Sciences) using standard procedures. Antigens were captured by the anti-His capture chip surface at a flow rate of 10 μL/min for 90 sec to reach antibody binding levels between 10 and 30 RU. […] Dissociation was measured at 30 μL/min by injection of HBS-EP+ buffer for 1200 sec. The chip surface was regenerated by inject of regeneration buffer (His capture kit, GE Life Sciences). Sensorgrams were double referenced with a blank chip surface and H BS-EP+ buffer blanks. Data were fitted with a 1:1 Langmuir binding model for determination of kinetic and affinity constants ka, kd and KD using Biacore 8K Evaluation software v1.11.7442 (GE Healthcare).

[2] = target: CD123 on THP-1 target cells (UniProt P26951 19-378, limits assumed); experiment: cell-based or functional assay
[3] = target: T2, human PD-1 (8986-PD, R&D Systems) (human, UniProt Q15116 25-167); experiment: SPR, BIAcore 3000; antibody captured by anti-human Fc, antigen as analyte
T2 sequence (Q15116 25-167 limits assumed): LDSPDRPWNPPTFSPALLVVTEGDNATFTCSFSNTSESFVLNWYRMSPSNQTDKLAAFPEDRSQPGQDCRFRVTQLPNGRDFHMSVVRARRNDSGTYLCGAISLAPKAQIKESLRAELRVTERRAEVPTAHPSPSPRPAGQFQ
Method: (§1) Surface plasmon resonance (SPR) was used to assess the binding of antigens to antibody. Binding of antigens to the antibody constructs was measured using surface plasmon resonance (SPR) with a BIAcore 3000 instrument (GE Healthcare) with HBS-EP buffer (GE Healthcare). Human IL4 (IL004, Millipore) and human IL13 (IL012, Millipore), human HER2 (1129-ER, R&D Systems), human TNFa (H8916, SIGMA Aldrich), human CTLA4 (CT4-H5229, ACRO Biosystems), human PD-1 (8986-PD, R&D Systems), and human IL6Ra (227-SR/CF, R&D Systems) were used as antigens. The anti-human Fc capture antibody (human antibody capture kit, GE Life Sciences) was immobilized via primary amine groups (11000 RU) on a research grade CM5 chip (GE Life Sciences) using standard procedures. […] Binding tests with HER2 was performed by capture of the antigen with the anti-human Fc antibody. The tested antibody constructs were used as analytes and injected at 100 nM concentration for 240 sec with a dissociation time of 300 sec at a flow rate of 30 μL/min. Binding kinetics measurements were done using the captured antibodies with injects of two-fold serial dilutions of the analytes of 3 nM to 100 nM. […] Chip surfaces were regenerated with 2 min injects of the regeneration buffer provided with the capture kit. Sensorgrams were double referenced with a blank chip surface and HBS-EP buffer blanks. Data analysis was performed using the BIAevaluation software v4.1.

[4] = target: T3, human IL13 (IL012, Millipore) (human, UniProt P35225 35-146); experiment: as above
T3 sequence (P35225 35-146 limits assumed): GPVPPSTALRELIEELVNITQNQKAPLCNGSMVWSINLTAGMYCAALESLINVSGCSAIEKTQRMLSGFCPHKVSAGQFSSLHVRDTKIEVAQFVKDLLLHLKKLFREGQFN
Method: as §1

[5] = target: T2, human PD-1 (8986-PD, R&D Systems); experiment: SPR, BIAcore 3000; antibody captured by anti-human Fc, antigen as analyte; column head says nM, but kd/ka gives M
Method: as §1

[6] = target: T3, human IL13 (IL012, Millipore); experiment: as above
Method: as §1

[7] = target: T3, human IL13 (IL012, Millipore); experiment: SPR, BIAcore 3000; antibody captured by anti-human Fc, antigen as analyte; the mark X is not explained
Method: as §1, with “Data analysis was performed using the BIAevaluation software v4.1.” left out

[8] = target: T4, human HER2 (1129-ER, R&D Systems) (human, UniProt P04626 23-652); experiment: SPR (BIAcore 3000), binding test with HER2 captured by the anti-human Fc antibody, constructs injected at 100 nM; response as % of theoretical Rmax
T4 construct: also called Receptor tyrosine-protein kinase erbB-2

[9] = target: T5, Human IL4 (IL004, Millipore) (human, UniProt P05112 25-153); experiment: SPR, BIAcore 3000; antibody captured by anti-human Fc, antigen as analyte
T5 sequence (looked up): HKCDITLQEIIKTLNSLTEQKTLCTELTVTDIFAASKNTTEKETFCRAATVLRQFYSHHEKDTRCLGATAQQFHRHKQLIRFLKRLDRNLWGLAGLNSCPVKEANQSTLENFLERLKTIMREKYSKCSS
Method: as §1

[10] = target: T5, Human IL4 (IL004, Millipore); experiment: SPR, BIAcore 3000; antibody captured by anti-human Fc, antigen as analyte; column head says nM, but kd/ka gives M
Method: as §1

B1: anti-CD3ε-dsTrasKO2 × anti-CD123 (ID 38, alternative anti-CD3ε binding domain) (bispecific antibody, human IgG1, kappa, L234A L235A)
light 1: not shown
heavy 1: not shown
heavy 2: EVQLQQSGPELVKPGASVKMSCKASGYTFTDYYMKWVKQSHGKSLEWIGDIIPSNGATFYNQKFKGKATLTVDRSSSTAYMHLNSLTSEDSAVYYCTRSHLLRASWFAYWGQGTLVTVSAASTKGPSVFPLAPSSKSTSGGTAALGCLVKDYFPEPVTVSWNSGALTSGVHTFPAVLQSSGLYSLSSVVTVPSSSLGTQTYICNVNHKPSNTKVDKKVEPKSCDKTHTCPPCPAPEAAGGPSVFLFPPKPKDTLMISRTPEVTCVVVDVSHEDPEVKFNWYVDGVEVHNAKTKPREEQYNSTYRVVSVLTVLHQDWLNGKEYKCKVSNKALPAPIEKTISKAKGQPREPQVCTLPPSRDELTKNQVSLSCAVKGFYPSDIAVEWESNGQPENNYKTTPPVLDSDGSFFLVSKLTVDKSRWQQGNVFSCSVMHEALHNRFTQKSLSLSPG
light 2: DFVMTQSPSSLTVTAGEKVTMSCKSSQSLLNSGNQKNYLTWYLQKPGQPPKLLIYWASTRESGVPDRFTGSGSGTDFTLTISSVQAEDLAVYYCQNDYSYPYTFGGGTKLEIKRTVAAPSVFIFPPSDEQLKSGTASVVCLLNNFYPREAKVQWKVDNALQSGNSQESVTEQDSKDSTYSLSSTLTLSKADYEKHKVYACEVTHQGLSSPVTKSFNRGEC
**Q.** Which Kd [1] does the source give for B1 here?
**A.** 332 pM

**Q.** And the “Cytotox EC50 (dead CFSE/7-AAD double positive THP-1 target cells; human pan T cells, effector:target 10:1, 20 h)” value [2]?
**A.** 0.95 pM

B2: PD1 × IL13 bispecific (ID 26, anti-PD1-dsTrasKO2-Fc knob × anti-IL13-huIgG1 hole-RF) (bispecific antibody)
light 1: not shown
heavy 1: not shown
light 2: not shown
heavy 2: EVQLKESGPGLVAPGGSLSITCTVSGFSLTDSSINWVRQPPGKGLEWLGMIWGDGRIDYADALKSRLSISKDSSKSQVFLEMTSLRTDDTATYYCARDGYFPYAMDFWGQGTSVTVSSASTKGPSVFPLAPSSKSTSGGTAALGCLVKDYFPEPVTVSWNSGALTSGVHTFPAVLQSSGLYSLSSVVTVPSSSLGTQTYICNVNHKPSNTKVDKKVEPKSCDKTHTCPPCPAPELLGGPSVFLFPPKPKDTLMISRTPEVTCVVVDVSHEDPEVKFNWYVDGVEVHNAKTKPREEQYNSTYRVVSVLTVLHQDWLNGKEYKCKVSNKALPAPIEKTISKAKGQPREPQVCTLPPSRDELTKNQVSLSCAVKGFYPSDIAVEWESNGQPENNYKTTPPVLDSDGSFFLVSKLTVDKSRWQQGNVFSCSVMHEALHNRFTQKSLSLSPG
notes: PD1 arm is the pseudoFab (dsTrasKO2), IL13 arm the normal Fab
**Q.** Which results are given for B2?
**A.** koff [3]: 0.0029 s⁻¹; kon [3]: 131000 M⁻¹ s⁻¹; koff [4]: 1.66e-05 s⁻¹; kon [4]: 2.92e+06 M⁻¹ s⁻¹; Kd [5]: 22100 pM; Kd [6]: 5.68 pM

B3: IL13 pseudo-IgG (ID 22) (antibody)
light: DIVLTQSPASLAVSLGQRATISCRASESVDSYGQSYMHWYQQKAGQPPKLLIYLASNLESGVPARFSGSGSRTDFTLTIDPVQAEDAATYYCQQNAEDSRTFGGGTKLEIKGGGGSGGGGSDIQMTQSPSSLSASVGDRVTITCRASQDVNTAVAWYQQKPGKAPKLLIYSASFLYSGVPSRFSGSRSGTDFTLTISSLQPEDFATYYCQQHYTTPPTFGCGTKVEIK
heavy: EVQLKESGPGLVAPGGSLSITCTVSGFSLTDSSINWVRQPPGKGLEWLGMIWGDGRIDYADALKSRLSISKDSSKSQVFLEMTSLRTDDTATYYCARDGYFPYAMDFWGQGTSVTVSSGGGGSGGGGSEVQLVESGGGLVQPGGSLRLSCAASGFNIKDTYIHWVRQAPGKCLEWVAEIYPTNGYTEYADSVKGRFTISADTSKNTAYLQMNSLRAEDTAVYYCSRWGGDGFYAMDYWGQGTLVTVSSDKTHTHHHHHH
notes: also called IL13 mAb Pseudo-IgG
**Q.** With B3 as the binder, how does the koff [7] read?
**A.** 6.56e-07 s⁻¹

**Q.** What about the kon [4] of the same binder?
**A.** 1.54e+06 M⁻¹ s⁻¹

**Q.** What about the Kd [6] of the same binder?
**A.** 0.425 pM

**Q.** Does B3 bind [8]?
**A.** no binding (tested: 100 nM)

B4: IL4 mAb (ID 18, anti-IL4-VL1-IGKC / anti-IL4-VH1-IgG1) (antibody, V domains shown)
VH: QVQLQQSGPELVKPGASVKISCKASGYSFTSYWIHWIKQRPGQGLEWIGMIDPSDGETRLNQRFQGRATLTVDESTSTAYMQLRSPTSEDSAVYYCTRLKEYGNYDSFYFDVWGAGTLVTVSS
VL: DIQMTQSPASLSVSVGDTITLTCHASQNIDVWLSWFQQKPGNIPKLLIYKASNLHTGVPSRFSGSGSGTGFTLTISSLQPEDIATYYCQQAHSYPFTFGGGTKLEIKR
notes: also called IL4mAb-huIgG1
**Q.** B4 was tested. Which koff [9] did it give?
**A.** 0.000161 s⁻¹

**Q.** What about the kon [9] of the same binder?
**A.** 1.04e+08 M⁻¹ s⁻¹

**Q.** What about the Kd [10] of the same binder?
**A.** 1.55 pM

— US20230391888A1 (Sanofi, published 2023)
